Assay [1] concerns the target T1, EBV LMP2 (latent membrane protein 2) peptide on HLA-A*02:01 (human).
T1 peptide: LLWTLVVLL
In words: killing.

The target of assay [2] is T1, EBV LMP2 (latent membrane protein 2) …. In words: cytokine release.

Three molecules from patent US20210369776A1 (published 2021) can be followed below.

B1: L201 TCR (TCR, V domains shown)
Valpha: DQQVKQNSPSLSVQEGRISILNCDYTNSMFDYFLWYKKYPAEGPTFLISISSIKDKNEDGRFTVFLNKSAKHLSLHIVPSQPGDSAVYFCAAPPPSGNQFYFGTGTSLTVIP
Vbeta: DVKVTQSSRYLVKRTGEKVFLECVQDMDHENMFWYRQDPGLGLRLIYFSYDVKMKEKGDIPEGYSVSREKKERFSLILESASTNQTSMYLCASSTRLAGAQRDTQYFGPGTRLTVL
Turning to B1, the binding result in assay [1] is listed as “recognises”.

B2: L203 TCR (TCR, V domains shown)
Valpha: DQQVKQNSPSLSVQEGRISILNCDYTNSMFDYFLWYKKYPAEGPTFLISISSIKDKNEDGRFTVFLNKSAKHLSLHIVPSQPGDSAVYFCAAKLPQAAGNKLTFGGGTRVLVKP
Vbeta: MVIQNPRYQVTQFGKPVTLSCSQTLNHNVMYWYQQKSSQAPKLLFHYYDKDFNNEADTPDNFQSRRPNTSFCFLDIRSPGLGDAAMYLCATSSSIAGDTRNNEQFFGPGTRLTVL
Consider B2, for which, in assay [2], the binding result is reported as “recognises”.

B3: L202 TCR (TCR, V domains shown)
Valpha: EDVEQSLFLSVREGDSSVINCTYTDSSSTYLYWYKQEPGAGLQLLTYIFSNMDMKQDQRLTVLLNKKDKHLSLRIADTQTGDSAIYFCAESIPSGYNKLIFGAGTRLAVHP
Vbeta: GVAQSPRYKIIEKRQSVAFWCNPISGHATLYWYQQILGQGPKLLIQFQNNGVVDDSQLPKDRFSAERLKGVDSTLKIQPAKLEDSAVYLCASSLGLAGEDTQYFGPGTRLTVL
With B3, the binding result in assay [1] is “recognises”.
